The supplement of paper PMC9170038

Columns and labels:
MS2 coat protein [1] = assay: apparent KD of MS2 coat protein, switch OFF state (with FMN for OFF switches, without FMN for ON switches); designed switch direction (-1 OFF switch, 1 ON switch): -1; higher = weaker reporter binding; details: FMN input: 0 or 200 uM; Eterna round: R93 (includes R88 designs)
In short: (§1)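 The buffer was 100 mM Tris-HCl pH 7.5 with 80 mM KCl and 4 mM MgCl2, used without or with constant ligand. In it, RNA switches transcribed on-chip from Illumina sequencing clusters were titrated with SNAP-549-labelled MS2 coat protein in twofold steps from 0.7 or 1.5 nM to 3 µM. Apparent KD for each design is the median of its normalised cluster binding-curve fits.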

MS2 coat protein [2] = assay: apparent KD of MS2 coat protein, switch ON state; designed switch direction (-1 OFF switch, 1 ON switch): -1; higher = weaker reporter binding; details: FMN input: 0 or 200 uM; Eterna round: R93 (includes R88 designs)
In short: as §1

ACGAAACAUGAGGAUCACCCAUGUCAGGAUAUGAACGAAAAUAAAUAAAAAUAAAAGUUCAGAAGGGACGACGA [66%, Wbt, 24]
apparent KD of MS2 coat protein (MS2 coat protein [1]): 53 nM | apparent KD of MS2 coat protein (MS2 coat protein [2]): 39.5 nM

AAAACGGCAGGAUAUACAGAUGAGAUCUCGACCGAAAAAAAACAUGAGGAUCACCCAUGUAGAAGGGCCAAAAA [Ex2 Malc#5]
apparent KD of MS2 coat protein (MS2 coat protein [1]): 60.9 nM | apparent KD of MS2 coat protein (MS2 coat protein [2]): 30.1 nM

GGAAAACAUGAGGAUCACCCAUGUAAGGAUAUGCAAAAAAAAGGAUAUAGAAGGAAAAGCAGAAGGUACAAAGG [salish99-ex1-26]
apparent KD of MS2 coat protein (MS2 coat protein [1]): 38.2 nM | apparent KD of MS2 coat protein (MS2 coat protein [2]): 30.8 nM

AAAAAGUGAGGAUAUACAUGAGGAUCACCCAUGUGAAAGUCGAAAAAAAAGACAAAAAGUAGAAGGCACAAAAA [Fiskers Exclusion 3 D2]
apparent KD of MS2 coat protein (MS2 coat protein [1]): 30.3 nM | apparent KD of MS2 coat protein (MS2 coat protein [2]): 22.7 nM

AGCACGUCAGGAUAUACGAAAAAAAAGGGUAAACUAAAGGGACAUGAGGAUCACCCAUGUAGAAGGGACAAGCA [Diamond 92]
apparent KD of MS2 coat protein (MS2 coat protein [1]): 245 nM | apparent KD of MS2 coat protein (MS2 coat protein [2]): 90.8 nM

GUGUACAGAGGAUAUACUGGAGCAUGGAAACAUGCAAGAUCACAUGAGGAUCACCCAUGUAGAAGGCUGUACAC [Ex2: 742]
apparent KD of MS2 coat protein (MS2 coat protein [1]): 21.8 nM | apparent KD of MS2 coat protein (MS2 coat protein [2]): 119 nM

AAUAUGUUAGGAUAUGCGAAGUCAGGACACACACUGACGAAGCAGAAGGAACAUGAGGAUCACCCAUGUAAUAA [JR_Exclusion-4 65% 6]
apparent KD of MS2 coat protein (MS2 coat protein [1]): 26.6 nM | apparent KD of MS2 coat protein (MS2 coat protein [2]): 27.6 nM

UAGAAGGUAGGAUAUACUUGGGAAACUAAUGCAAAGAUAUAACAUGAGGAUCACCCAUGUAGAAGGGCCAGUAA [JR_Exc002_Sub018]
apparent KD of MS2 coat protein (MS2 coat protein [1]): 97.9 nM | apparent KD of MS2 coat protein (MS2 coat protein [2]): 114 nM

CUCAAGUAAGGAUAUCGAAGAAAAGAAGAGAAAGAAAAGAACGAGAAGGUACAUGAGGAUCACCCAUGUAAGAA [EteRNA is fun!]
apparent KD of MS2 coat protein (MS2 coat protein [1]): 28 nM | apparent KD of MS2 coat protein (MS2 coat protein [2]): 32.4 nM

AACAUGUCAGGAUAUGCAAAAGGAGACUGACACGCGAGUGAGCAGAAGGGACAUGAGGAUCACCCAUGUUCAAA [Mat - Mod of Meechl]
apparent KD of MS2 coat protein (MS2 coat protein [1]): 15.6 nM | apparent KD of MS2 coat protein (MS2 coat protein [2]): 20.9 nM

AAAAAAGGAGGAUAUACGUACAUGUCGAAAGACGUGAAGGGACAUGAGGAUCACCCAUGUAGAAGGCUUAAAAA [Mat - Exclusion 2 - JL mod - D70]
apparent KD of MS2 coat protein (MS2 coat protein [1]): 22.9 nM | apparent KD of MS2 coat protein (MS2 coat protein [2]): 37.2 nM

AACAGUACAGGAUAUACAUGAGGAUCACCCAUGUAAAAAUAAAAGGGAAUCUCAAAAAGUAGAAGGGUACUGGA [Moding Maslow revisited (73) 13]
apparent KD of MS2 coat protein (MS2 coat protein [1]): 36.3 nM | apparent KD of MS2 coat protein (MS2 coat protein [2]): 72.5 nM

CAGUACUGAGGAUAUACAUGAGGAUCACCCAUGUGGGAAAGCUACGAAAGUAGCAAAUGUAGAAGGCAGUACUG [Ex3: 805]
apparent KD of MS2 coat protein (MS2 coat protein [1]): 98.7 nM | apparent KD of MS2 coat protein (MS2 coat protein [2]): 153 nM

AAAAAGUGAGGAUAUACGUUGAAAAAAAAAAAAAAAAAGCGGUAGAAGGCACAUGAGGAUCACCCAUGUAAAAA [Ex4 Malc#4]
apparent KD of MS2 coat protein (MS2 coat protein [1]): 22.5 nM | apparent KD of MS2 coat protein (MS2 coat protein [2]): 32.7 nM

AAGAAACAUGAGGAUCACCCAUGUGAGGAUAUCUAAAAGAAAAGAAAAGAAAGAAGAAAGAGAAGGCACAAAGG [Setut]
apparent KD of MS2 coat protein (MS2 coat protein [1]): 64.1 nM | apparent KD of MS2 coat protein (MS2 coat protein [2]): 34.7 nM

AACAGUACAGGAUAUACAUGAGGAUCACCCAUGUGAAAAGAAAGUGGCGUACCACAAAGUAGAAGGGUACUGGA [Mat - Exclusion 3 - JL mod - D24]
apparent KD of MS2 coat protein (MS2 coat protein [1]): 96.8 nM | apparent KD of MS2 coat protein (MS2 coat protein [2]): 27.5 nM

AAUAAGUCAGGAUAUGCAAAUAAUAAAUAAAAUAAAAUAAAGCAGAAGGGACAUGAGGAUCACCCAUGUAAAUA [Opal 40]
apparent KD of MS2 coat protein (MS2 coat protein [1]): 41 nM | apparent KD of MS2 coat protein (MS2 coat protein [2]): 47.9 nM

AACAGUACAGGAUAUACAUGAGGAUCACCCAUGUGAGAAUUAAAAGGCGUACCUAAAUGUAGAAGGGUACUGGA [JL Maslow Revisted mod 19]
apparent KD of MS2 coat protein (MS2 coat protein [1]): 61.8 nM | apparent KD of MS2 coat protein (MS2 coat protein [2]): 56.3 nM

AGAAUACAUGAGGAUCACCCAUGUGAGGAUAUGUAGAUAAAAAUAAAAUAAAAUAAAUACAGAAGGCGCAAAAG [EX 1 May 20]
apparent KD of MS2 coat protein (MS2 coat protein [1]): 44.9 nM | apparent KD of MS2 coat protein (MS2 coat protein [2]): 44.5 nM

AAGAAGUGAGGAUAUCCAAAAGAAAAGAAAAGAAAAGAAAAGGAGAAGGCACAUGAGGAUCACCCAUGUAAGAA [Ankhkaenre Psamtik III]
apparent KD of MS2 coat protein (MS2 coat protein [1]): 28.4 nM | apparent KD of MS2 coat protein (MS2 coat protein [2]): 26.3 nM

AAGGUACGAGGAUAUACAUAGAUACAGACACAUGUACAUGUACAUGAGGAUCACCCAUGUAGAAGGCGUAUAUG [Mat - Same state - Mayanna Mod - D109]
apparent KD of MS2 coat protein (MS2 coat protein [1]): 73.9 nM | apparent KD of MS2 coat protein (MS2 coat protein [2]): 67.5 nM

AAUAUCGGAGGAUAUGCAUAGAUAAAGAACCAUGUUAAAACACAUGAGGAUCACCCAUGUAGAAGGCCGAUAAA [AJ 9]
apparent KD of MS2 coat protein (MS2 coat protein [1]): 77.5 nM | apparent KD of MS2 coat protein (MS2 coat protein [2]): 54.1 nM

AGGAAACAUGAGGAUCACCCAUGUGAGGAUAUUGGAAAGAAAAGAAAAGAAAGAAGAAUAAGAAGGCACAAGAA [Merneith]
apparent KD of MS2 coat protein (MS2 coat protein [1]): 18.2 nM | apparent KD of MS2 coat protein (MS2 coat protein [2]): 21.8 nM

AAAAAACAUGAGGAUCACCCAUGUAAGGAUAUGCUAAAAAACACGGAAAACGUGAAUAGCAGAAGGUACAAAAG [Mat - Exclusion 1 - Eli mod - D84]
apparent KD of MS2 coat protein (MS2 coat protein [1]): 67.7 nM | apparent KD of MS2 coat protein (MS2 coat protein [2]): 15.9 nM

AAAGGACGAGGAUAUACAUGAGGAUCACCCAUGUAAAAAACAUAGUCAAAGGGCUUGUGUAGAAGGCGUCCAAA [Meechl Ex3 2 R2 v11]
apparent KD of MS2 coat protein (MS2 coat protein [1]): 229 nM | apparent KD of MS2 coat protein (MS2 coat protein [2]): 50.2 nM

CAAAAGGAAGGAUAUACAUAAUAAAACGGGCGGGCACCUUGACAUGAGGAUCACCCAUGUAGAAGGUCCAAUAA [Ramaanan]
apparent KD of MS2 coat protein (MS2 coat protein [1]): 18.1 nM | apparent KD of MS2 coat protein (MS2 coat protein [2]): 16.9 nM

AGAAAACAUGAGGAUCACCCAUGUGAGGAUAUGCGAAAGAAAGAAAGAAAGAAAGAAAGCAGAAGGCACAAGAA [Ex 1 Tesla 2]
apparent KD of MS2 coat protein (MS2 coat protein [1]): 44.4 nM | apparent KD of MS2 coat protein (MS2 coat protein [2]): 15.6 nM

AAAAAACAUGAGGAUCACCCAUGUAAGGAUAUGCUCGUGCGAAAGCACAAAAAAAAGAGCAGAAGGUACAAAAA [66%, Wbt, 38]
apparent KD of MS2 coat protein (MS2 coat protein [1]): 32.3 nM | apparent KD of MS2 coat protein (MS2 coat protein [2]): 19.8 nM

GGAAAACAUGAGGAUCACCCAUGUCAGGAUAUACAAAGAAAGAAAGAAAAGAAAGAAAGUAGAAGGGACAAAAG [Amethyst 15]
apparent KD of MS2 coat protein (MS2 coat protein [1]): 31.9 nM | apparent KD of MS2 coat protein (MS2 coat protein [2]): 27.1 nM

ACUAACGGAGGAUAUACUAACAAACCUCAAACAUACAUCAAACAUGAGGAUCACCCAUGUAGAAGGCCGAAACU [JR_Exc002_Sub004]
apparent KD of MS2 coat protein (MS2 coat protein [1]): 52.8 nM | apparent KD of MS2 coat protein (MS2 coat protein [2]): 34.4 nM

AAAAUACAUGAGGAUCACCCAUGUGAGGAUAUGAGAAAGCAAAUAAAAUAAAGCAAACUCAGAAGGCACAAAAA [EX 1 May 25]
apparent KD of MS2 coat protein (MS2 coat protein [1]): 50.2 nM | apparent KD of MS2 coat protein (MS2 coat protein [2]): 39.5 nM

GAAAAGUGAGGAUAUUCGGAAGGGAAAGCGCAAACCCAACCGAAGAAGGCACAUGAGGAUCACCCAUGUGGAAG [Mat - Exaclusion 4 - Eli mod - D58]
apparent KD of MS2 coat protein (MS2 coat protein [1]): 28.7 nM | apparent KD of MS2 coat protein (MS2 coat protein [2]): 23.6 nM

AACAUACAUGAGGAUCACCCAUGUCAGGAUAUGCCGGGUUAGAGCCAACUGAAAAACCGUAGAAGGGACGAAAA [Bilbo Confounded 8 - Jieux - Exclusion 1]
apparent KD of MS2 coat protein (MS2 coat protein [1]): 79.5 nM | apparent KD of MS2 coat protein (MS2 coat protein [2]): 66.9 nM

AAAAAGUGAGGAUAUACGAUGUGGAGUAGACACAACCAGACGUAGAAGGCACAUGAGGAUCACCCAUGUCCAAA [EX4 Malc#17]
apparent KD of MS2 coat protein (MS2 coat protein [1]): 28.6 nM | apparent KD of MS2 coat protein (MS2 coat protein [2]): 21 nM
